{"source": "the supplement of paper PMC10201428", "key": {"[1]": {"test_system": "VchCAST RNA-guided transposition machinery (E. coli BL21(DE3) host, lacZ target)", "test": "relative integration efficiency (T-RL orientation) vs wild-type transposon end (log2 (normalized fold change)); transposon end mutated: right end (5 bp flank + 75 bp right end); higher = more efficient transposition", "method_in_brief": "(§1)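 A T7-driven effector plasmid encoding a CRISPR array, tniQ-cas8-cas7-cas6 and tnsA-tnsB-tnsC was co-transformed into E. coli BL21(DE3) together with a pUC57 mini-transposon donor holding barcoded pools of 1549 left-end or 1849 right-end variants. Transformants were plated with 0.1 mM IPTG at 37°C for 18 h. Illumina sequencing of PCR-amplified input plasmids and genomic integration junctions gave barcode abundances, and relative integration efficiency is their output/input fold change, normalised to reference barcodes and log-transformed.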"}, "[2]": {"test_system": "VchCAST RNA-guided transposition machinery (E. coli BL21(DE3) host, lacZ target)", "test": "relative integration efficiency (T-LR orientation) vs wild-type transposon end (log2 (normalized fold change)); transposon end mutated: right end (5 bp flank + 75 bp right end); higher = more efficient transposition", "method_in_brief": "as §1"}}, "note": "± gives the standard deviation of the averaged measurements."}
{"sequence": "ACATTTGTTGATACAACCATAAAATGATAATTACACCCATAACGGTATAATTATCACACCCATAAATTGATATTGCCTCTGATCATAGTCAGACCAACATTGCTACGACCCGTATTCGCACCGACAC", "values": [{"measurement": "relative integration efficiency (log2)", "setting": "[1]", "result": "-1.01 ± 0.024"}, {"measurement": "relative integration efficiency (log2)", "setting": "[2]", "result": "-1.21 ± 0.31"}]}
{"sequence": "ACATTTGTTGATACAACCATAAAATGATAATTACACCCATAACGGTCGCCGGCGACACAAACGCCCGGTCGCGGTAAGAGGATCATAGTCAGACCAACATTGCTACGACCCGTATTCGCACCGACAC", "values": [{"measurement": "relative integration efficiency (log2)", "setting": "[1]", "result": "-2.35 ± 0.24"}, {"measurement": "relative integration efficiency (log2)", "setting": "[2]", "result": "0.674 ± 0.11"}]}
{"sequence": "ACATTTGTTGATACAACCATAAAATGATAATTACACCCATAACGTGATAATTATCACACCCATAAATTGATATTGCCTCTGATCATAGTCAGACCAACATTGCTACGACCCGTATTCGCACCGACAC", "values": [{"measurement": "relative integration efficiency (log2)", "setting": "[1]", "result": "0.496 ± 0.076"}, {"measurement": "relative integration efficiency (log2)", "setting": "[2]", "result": "0.32 ± 0.18"}]}
{"sequence": "ACATTTGTTGATACAACCATAAAATGATAATTACACCCATAATAACATAATTATCACACCCATAAATTGATATTGCCTCTGATCATAGTCAGACCAACATTGCTACGACCCGTATTCGCACCGACAC", "values": [{"measurement": "relative integration efficiency (log2)", "setting": "[1]", "result": "-2.11 ± 0.092"}, {"measurement": "relative integration efficiency (log2)", "setting": "[2]", "result": "-1.45 ± 0.04"}]}
{"sequence": "ACATTTGTTGATACAACCATAAAATGATAATTACACCCATAATATGATAATTATCACACCCATAAATTGATATTGCCTCTGATCATAGTCAGACCAACATTGCTACGACCCGTATTCGCACCGACAC", "values": [{"measurement": "relative integration efficiency (log2)", "setting": "[1]", "result": "-0.297 ± 0.039"}, {"measurement": "relative integration efficiency (log2)", "setting": "[2]", "result": "-0.175 ± 0.045"}]}
{"sequence": "ACATTTGTTGATACAACCATAAAATGATAATTACACCCATAATTTGATAATTACCACTCCCAATTTAACTATAACGCTCTGATCATAGTCAGACCAACATTGCTACGACCCGTATTCGCACCGACAC", "values": [{"measurement": "relative integration efficiency (log2)", "setting": "[1]", "result": "-1.09 ± 0.25"}, {"measurement": "relative integration efficiency (log2)", "setting": "[2]", "result": "2.36 ± 0.071"}]}
{"sequence": "ACATTTGTTGATACAACCATAAAATGATAATTACACCCATACCGGGATAATTATCACACCCATAAATTGATATTGCCTCTGATCATAGTCAGACCAACATTGCTACGACCCGTATTCGCACCGACAC", "values": [{"measurement": "relative integration efficiency (log2)", "setting": "[1]", "result": "-2.211 ± 0.0089"}, {"measurement": "relative integration efficiency (log2)", "setting": "[2]", "result": "-2.1 ± 0.086"}]}
{"sequence": "ACATTTGTTGATACAACCATAAAATGATAATTACACCCATACCGGTCGCCGGCGACACAAACGCCCGGTCGCGGTAAGAGGATCATAGTCAGACCAACATTGCTACGACCCGTATTCGCACCGACAC", "values": [{"measurement": "relative integration efficiency (log2)", "setting": "[1]", "result": "-2.6 ± 0.11"}, {"measurement": "relative integration efficiency (log2)", "setting": "[2]", "result": "0.296 ± 0.13"}]}
{"sequence": "ACATTTGTTGATACAACCATAAAATGATAATTACACCCATACCTTGATAATTATCACACCCATAAATTGATATTGCCTCTGATCATAGTCAGACCAACATTGCTACGACCCGTATTCGCACCGACAC", "values": [{"measurement": "relative integration efficiency (log2)", "setting": "[1]", "result": "-0.707 ± 0.089"}, {"measurement": "relative integration efficiency (log2)", "setting": "[2]", "result": "-0.978 ± 0.071"}]}
{"sequence": "ACATTTGTTGATACAACCATAAAATGATAATTACACCCATATTAAGATAATTATCACACCCATAAATTGATATTGCCTCTGATCATAGTCAGACCAACATTGCTACGACCCGTATTCGCACCGACAC", "values": [{"measurement": "relative integration efficiency (log2)", "setting": "[1]", "result": "-0.6107 ± 0.0014"}, {"measurement": "relative integration efficiency (log2)", "setting": "[2]", "result": "-0.688 ± 0.12"}]}
{"sequence": "ACATTTGTTGATACAACCATAAAATGATAATTACACCCATATTTTGATAATTATCACACCCATAAATTGATATTGCCTCTGATCATAGTCAGACCAACATTGCTACGACCCGTATTCGCACCGACAC", "values": [{"measurement": "relative integration efficiency (log2)", "setting": "[1]", "result": "-0.188 ± 0.015"}, {"measurement": "relative integration efficiency (log2)", "setting": "[2]", "result": "0.00197 ± 0.1"}]}
{"sequence": "ACATTTGTTGATACAACCATAAAATGATAATTACACCCATCAATTGATAATTATCACACCCCATTTAACTATAACGCTCTGATCATAGTCAGACCAACATTGCTACGACCCGTATTCGCACCGACAC", "values": [{"measurement": "relative integration efficiency (log2)", "setting": "[1]", "result": "-1.68 ± 0.23"}, {"measurement": "relative integration efficiency (log2)", "setting": "[2]", "result": "1.6 ± 0.24"}]}
{"sequence": "ACATTTGTTGATACAACCATAAAATGATAATTACACCCATCAATTGATAATTATCCCACCCAATTTAACTATAACGCTCTGATCATAGTCAGACCAACATTGCTACGACCCGTATTCGCACCGACAC", "values": [{"measurement": "relative integration efficiency (log2)", "setting": "[1]", "result": "-1.93 ± 0.31"}, {"measurement": "relative integration efficiency (log2)", "setting": "[2]", "result": "1.54 ± 0.022"}]}
{"sequence": "ACATTTGTTGATACAACCATAAAATGATAATTACACCCATCAATTGATAATTATCCCACCCCATTTAACTATAACGCTCTGATCATAGTCAGACCAACATTGCTACGACCCGTATTCGCACCGACAC", "values": [{"measurement": "relative integration efficiency (log2)", "setting": "[1]", "result": "-2.54 ± 0.3"}, {"measurement": "relative integration efficiency (log2)", "setting": "[2]", "result": "1.52 ± 0.21"}]}
{"sequence": "ACATTTGTTGATACAACCATAAAATGATAATTACACCCATCCATTGATAATTATCACACCCATAAATTGATATTGCCTCTGATCATAGTCAGACCAACATTGCTACGACCCGTATTCGCACCGACAC", "values": [{"measurement": "relative integration efficiency (log2)", "setting": "[1]", "result": "-1.21 ± 0.089"}, {"measurement": "relative integration efficiency (log2)", "setting": "[2]", "result": "-1.63 ± 1"}]}
